According to article PMC11180146 (2024):

Legend:
[1] = target: RNAseB, glycosylated (HM N-glycan at N34, mainly Man5 and Man6) (beef (bovine), as said of the protein in general) (UniProt P61823); assay: SPR; glycosylated RNAseB (Man5/6) amine-coupled to a CM5 chip on flow cell 2 (150 RU), deglycosylated RNAseB on control flow cell 1; enzyme as analyte, 120 s injection, 600 s dissociation; HBS-EP running buffer; Biacore X100
[2] = target: T1, RNAseB, glycosylated (HM N-glycan at N34, mainly Man5 and Man6) (beef (bovine), as said of the protein …, UniProt P61823 27-150, HM N-glycan (mainly Man5 and Man6) at N34); assay: SPR
T1 chain: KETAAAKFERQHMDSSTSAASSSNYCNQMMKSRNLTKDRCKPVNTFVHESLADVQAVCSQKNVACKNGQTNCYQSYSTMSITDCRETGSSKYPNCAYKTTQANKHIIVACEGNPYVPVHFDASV

B1: BT1285_(D161A-E163A), catalytically inactive variant of the GH18 endo-β-N-acetylglucosaminidase BT1285 (enzyme)
chain: MPVNQSDNNQSEVVTRSATGIKNIVYIEVNDINPLNAGSYIMDDAPFFDYVILFAANIRGVGSDATLYNNPNVQYILDHKDTLIKPLQDKGIKVLLGLLGDHTGLGFANMNSAQTEQFATAVANAVSQYGLDGVDFADAWAEYGRNGYPSGSTGSFSNLITALHNKMPGKTITVFNYGYTSELTGVNSYIDYGIYAFFNSPSWSTGFGMPNSKFAPYTINLNSAPSAASAQLYSGQVASKGYGAIGYYDLRANNIVSVLNGVAKGAFKSTCTYDGNSYPKNY
Kd [1]: 3.5 nM | koff [2]: 0.000419 s⁻¹
